Data as given in patent publication US20250277788A1 (GUIZHOU MEDICAL UNIVERSITY, published 2025).

B1: SARS-COV-2 N protein-specific single-chain antibody H6 (scFv, V domains shown)
VH: EVKLAESGPELVRPGVSVKISCKGSGYTFTDYPMHWVKQSHAKSLEWIGVISTYSGNTNYNQKFRGKATMTVDKSSSTAYMELARLTSEDSAIYYCTRGGNYGFDPWGQGTTLTVSS
notes: also called H6 antibody; scFv H6; not shown: C-terminal tags from the pHENHi vector (c-myc and a His tag, with the NotI junction)
B2: H6-AP fusion protein (single-chain antibody H6 fused to alkaline phosphatase) (other)
chain: MAEVKLAESGPELVRPGVSVKISCKGSGYTFTDYPMHWVKQSHAKSLEWIGVISTYSGNTNYNQKFRGKATMTVDKSSSTAYMELARLTSEDSAIYYCTRGGNYGFDPWGQGTTLTVSSAKTTAPSVGGGGSGGGGSGGGGSDIQMTQSHKFLSTSVGDRVNITCKASQDVGTAVAWYQQKPGQSPKLLIYWASTRHTGVPDRFTGSGSGTDFTLTITNVQSEDLAEYFCQQYSSYPLTFGSGTKIEMKRAVDSSGSTSGSGKPGSGEGSTAAAARAPEMPVLENRAAQGDITAPGGARRLTGDQTAALRDSLSDKPAKNIILLIGDGMGDSEITAARNYAEGAGGFFKGIDALPLTGQYTHYALNKKTGKPDYVTSSAASATAWSTGVKTYNGALGVDIHEKDHPTILEMAKAAGLATGNVSTAELQDATPAALVAHVTSRKCYGPSATSEKCPGNALEKGGKGSITEQLLNARADVTLGGGAKTFAETATAGEWQGKTLREQAQARGYQLVSDAASLNSVTEANQQKPLLGLFADGNMPVRWLGPKATYHGNIDKPAVTCTPNPQRNDSVPTLAQMTDKAIELLSKNEKGFFLQVEGASIDKQDHAANPCGQIGETVDLDEAVQRALEFAKKEGNTLVIVTADHAHASQIVAPDTKAPGLTQALNTKDGAVMVMSYGNSEEDSQEHTGSQLRIAAYGPHAANVVGLTDQTDLFYTMKAALGDIAHHHHHH
notes: also called fusion protein H6-AP

Key:
[1] = target: T1, recombinant SARS-COV-2 N protein (SARS-COV-2, UniProt P0DTC9 1-419); assay: SPR (UA Biotech); orientation not stated
T1 construct: also called nucleocapsid protein

[2] = target: T1, recombinant SARS-COV-2 N protein; assay: direct ELISA, N protein coated at 5 µg/mL, pNPP colour development
[3] = target: T1, recombinant SARS-COV-2 N protein; assay: direct ELISA, N protein coated at 5 µg/mL, pNPP colour development for 90 min

Binder	Kd [1]	koff [1]	kon [1]	fold of OD405 nm over control group (blank blocked wells) [2]	fold of OD405 nm over control group (blank blocked wells) at 90 min [3]
B1	0.298 nM	0.000286 s⁻¹	958000 M⁻¹ s⁻¹	–	–
B2	–	–	–	16 fold	31 fold
